{"source": "patent US20230220016A1", "target": "434cI-SH2 (SH2 domain of ABL1 kinase fused to 434 cI repressor) (434 phage) (UniProt P16117)", "assay": "cell-based or functional assay", "data": [{"substance": "RpoZ-HA4 (monobody HA4 fused to RpoZ) (from UniProt P0A800 1-91) (designed binder)", "values": [{"measurement": "transcriptional activation, bacterial 2-hybrid, sensitized promoter PlacZ-opt", "result": 200, "unit": "fold"}, {"measurement": "transcriptional activation, bacterial 2-hybrid, wild type PlacZ promoter", "result": 17, "unit": "fold"}]}]}
